The data set concerns the molecule itself. Put plainly: visible aggregation in tubes; 2 uM rEsp_N in phosphate-citrate buffer, pH 3.6 to 8 tested; aggregates at pH 4.0-4.2 seen as a ring on the glass wall after 24 h at 37 °C, 200 rpm.

B1: recombinant Esp_N domain (N-terminal domain of the enterococcal surface protein Esp, amino acids 50-743) (domain or fragment)
chain: QMGEGRLANYSASGNTFQENPGYTKNYNFSDLQFNPKAITGDVLQGNTIDFEVYGKHNIAASTANWEIRLQLDERLAQYVEKIQVDPKKGVGNSRRTFVRINDSLGRPTNIWKVNYIRANDGLFAGAETTDTQTAPNGVITFEKNLDEIFKEIGADNLKSDRLMYRIYLVSHQDDDKIVPGIESTGYFLTDQDDFYNKLDVSENNSDQFKHGSVNTKYEEANIQTKDGSGSTGANGAIILDHKLTKEKNFSYSTSAKGTPWYANYKIDERLVPYVSGIQMHMVQADKVAYNVAFESGKKVADLAIERREGHENYGMGSITDNDLTKLIDFANASPRPIVVRYVLQLTKPLDEILEEMKAADKIEENAPFGEDFIFDSWLSDTNKKLIQNTYGTGYYYLQDIDGDGNPDDKEESGDTNPYIGKPELEEVYDVDTTVKGKVFIHELAGTGHKAQLVDKEGTVLAEKTIAPNEKDGAPISDTVEFEFTGVDSSKLIAKDELKIQIVSPGFDKPEEGSTVIKESPKAVDKQTVVVGFKPDAKESIRNNKNLPEDAEYSWKTEPDTSNVTDSTKGIVTVKIGNRTFDVDVEFAVKASQAMENDATYVPITTTPETTIQSGKPTFDKPDVPLANDAFSVLDVYNKDFGNASVDANTGIVTFTPAKGVGESEPITGTIPIKIVYQDGSVGTTDLAVTVSKN
notes: Enterococcal surface protein Esp of Enterococcus faecalis, amplified from strain 11279; N-terminal domain, amino acids 50-743 of the 1873-residue protein; No cleavage of the tag is mentioned; also called N-terminus of Esp; not shown: His tag (from the vector pET46-Ek/LIC)
In the case of B1, the binding result is on record as “binds”.

For the origin of these results see paper PMC7101364, “The biofilm-associated surface protein Esp of Enterococcus faecalis forms amyloid-like fibers” (NPJ Biofilms and Microbiomes, 2020).
